Results taken from the RNAGym collection of RNA variant scans (doi:10.1073/pnas.2313332121).
Fewer inactive variants are shown than the library holds.

B1: TPR 5TU (parent)
chain: GGAUCUUCUCGAUCUAACAAAAAAGACAAAUCUGCCACAAAGCUUGAGAGCAUCUUCGGAUGCAGAGGCGGCAGCCUUCGGUGGCGCGAUAGCGCCAACGUUCUCAACUAUGACACGCAAAACGCGUGCUCCGUUGAAUGGAGUUUAUCAUG

Variants of: B1
Test: polymerase ribozyme fitness, log enrichment relative to wild type (log ratio); higher = more active; in vitro selection for triplet polymerase activity
Outline: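 A heterodimeric triplet polymerase ribozyme had each of its subunits mutagenized by PCR into a library, which was transcribed. One round of in vitro selection, done in triplicate, annealed each library with a biotinylated primer, its partner subunit and triplets, then incubated it frozen at −7 °C before gel excision of extended constructs, streptavidin-bead capture and RT-PCR. Fitness is the logarithm of genotype enrichment relative to wild-type enrichment, based on Illumina sequencing of inputs and outputs and inverse-variance-weighted replicate averages. A base-2 logarithm is used, and genotypes were kept only with ≥10 input reads and ≥1 read per output.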

Going from GGAUCUUCUCGAUCUAACAAAAAAGACAAAUCUGCCACAAAGCUUGCGAGCACCUUCGGAUGCAGAGGCGGCAGCCUUCGGUGGCGCGAUAGCGACAACGUUCGCAACUAUGACACGCUAAACGCGUGCUCCGUUUAAUGGAGUUUAUCAUG [A47C U53C C95A U104G A119U G136U] to GGAUCUUCUCGAUCUAACAAAAAAGACAAAUCUGCCACAUAGCUUGACAGCAACUUCGGAUGCAGAGGCGGCAGCCUUCGGUGGCGCGAUAGCGCCAACGUUCUCAACUAUGACACGCAAAACGCGUGCUCCGUUGAAUGGAGGUUAUCAUG [A40U G48C U53A U144G], the “polymerase ribozyme fitness (log ratio)” value rises from -3.11 to -2.19.

Compared with GGAUCUUCUCGAUCUAACAAAAAAGACAAAUCUGCCAUAAAGCUUGAGAGCCUCGACGGAUGCAGAGGCGGCAGCCUUCGGUGGCGCGAUAGCGCCAACGUUCUCAACUAUGACACGCACCACGCGUGCUCCGUUGAAUGGAGUUUAUCAUG [C38U A52C U55G U56A A120C A121C], GGAUCUUCUCGAUCUAACAAAAAAGACAAAUCUGCCACAAAGCUUGAGAGCAUCUUCGGAUGCAGAGGCGGCAGCCUUCGGUGACGCGAUAGCCCCAACGUUCUCAACUAUGACACGCAAAACGCGUGCUCCGUUGAAUGGAGUUUAUCAUG [G84A G94C] is higher in “polymerase ribozyme fitness (log ratio)” value: -2.04 for the first, -1.72 for the second.

GGAUCUUCUCGAUCUAACAAAAAAGACUAAUCUGCCACAAUGCUUGAGAGCAUCUUCGGAUGCAGACGCGGCAGCCUUCGGUGGCGCGAUAGUGCCAACGUUCUCAACUAUGACACGCAAAACGCGUGCUCCGUUGAAUGGAGUUUAUCAUG [A28U A41U G67C C93U] and GGAUCUUCUCGAUCUAACAAAAAAGACAAAUCUGCCACAAAGCUUGAGAGCAUCUUCGGAUGCAGAGGCGGCAGCCUUCGGGGGCGCGAUACCGCCAACGUUCUCGACUAUGACAUGCAAAACGCGUGCUCCGUCGAAUGGAGUUUAUCGUG [U82G G92C A106G C116U U135C A150G] cannot be ordered by “polymerase ribozyme fitness (log ratio)” value: no more than -4.2 for the first, no more than -4.2 for the second.

GGAUCGUCUCGAUCUUACAAAAAAGACAAAUCUGCCAUAAAGCUUGAGAGCAUCUUCGGAUGCAGAGGCGGCAGCCUUCGGUCGCGCGAUAGCGCCAACGUUCUCAACUAUGACACGCAAAACGCGUGCUCCGUUGAAAGAAGUUUAUCAUG [U6G A16U C38U G83C U139A G141A] and GGAUCUUCUCGAUCUAACAAAAAAGACAAAUCUGCCACAAAGCUUGAGAGCAUCUUCGGAUGCAGUGGCGGCAGCCUUCGGUGGCGGGAGAGCGCCAACGUACUCAACUAUGACACGCAAAACGCGUGCUCUGUUGAAUGGAGUUUAUCAUG [A66U C87G U90G U102A C132U] cannot be ordered by “polymerase ribozyme fitness (log ratio)” value: no more than -4.2 for the first, no more than -4.2 for the second.

GGAUCUUCUCGAUCUAACAAAAAAGACAAAUCUGCCAUAAAGCUUGAGAGCAUCUACGGGUGCAGAGGCGGCAGCCUAGGGUGGAGCGAUAGCGCCAACGUUCUCAACUAUGACACGCCAAACGCGUGCUCCGUGGAAUGGAGUUUAUCAAG [C38U U56A A60G U78A C79G C85A A119C U135G U151A] and GGAUCUUCUCGAUCUAACAAAAAAGACAAAUCUGCCACAAAGCUUGAGAGCAUCUUCGGAUGCAGAGGCGGCAGCCUUCGGUGUCGCGAUAGCGCCAACGUUCUCAACUAUGACACGCAAAACGCGUGCUCCGAUGAAUGGAGCUUAUCUUG [G84U U134A U144C A150U] cannot be ordered by “polymerase ribozyme fitness (log ratio)” value: no more than -4.2 for the first, no more than -4.2 for the second.

Going from GGAUCUUCUCGAUCUAACAAAAAAGACAAAUCUGCCACAAAGCUUGAGAGCAUCUUCGGAUGCAGAGGCGGCAGCCUUCGGUGGCGCGAUAGCGCCAACGUUAUCAACUAUGACACGCAAAACGCGUGCUCCGUUGAACGGAGUUUAUCAUG [C103A U139C] to GGAUCUUCUCGAUCUAACAAAAAAGACAAGUCUGCCUCAAAGCUUGAGAACAUCUUCGGAUGCAGAGGCGGCAGCCUUCGGUCGCGCGAUAGCGCCAACGUUCUCAACUAUGACACGCAAAACGCGUGCUCCGUUGAAUGGAGUUUAUCAUG [A30G A37U G50A G83C], the “polymerase ribozyme fitness (log ratio)” value falls from -3.89 to no more than -4.2.

Going from GGAUCUUCUCGAUCUAACAAAAAAGAAAAAUCUGCCACAAAGCAAGAGAGCAUCUUCGGAUGCAGAGGCGGCAGCCUUCGGUGGCGCGAUAGGGCCAACGUUCUCAACUAUGACACGCAAAACGCGUGCUCCGUUGAAUGGAGUUUAUCAUG [C27A U44A U45A C93G] to GGAUCUUCUCGAUCUAACAAAAAAGACAAAUCUGCCACAAAGCUUGUGAGCAUCUUCGGAUGCAGAGGCGGCAGCCUUCGGUGGCGCGAUAGUGCUAACGUUCUCAACUAUGACACGCAAAACGCGUGCUCCGUUGAAUGGAGUUUAUCAUA [A47U C93U C96U G152A], the “polymerase ribozyme fitness (log ratio)” value rises from -4.2 to -3.95.

Compared with GGAUCUUCUCGAUCUAACAAAAAAGACAAAUCUGCCAGAAAGCUUGAGAGCAUCUUCGGAUGCAGAGGCGGCAGCCUUCGGUGGCGCGAUAGCGACAACGUUCUCAACUAUGACACGCAAAACGCGUGCUCCGUUGAAUGUAGUUUAUCAUG [C38G C95A G141U], GGAUCUUCUCGAUCUAACAAAAAAGACAAAUCUGCCACAAAGCUUGAGAGCAUCAUCGGAUGCAGAGGCGGCAGCGUUCGGUGGCGCGAUAGUGCCAACGUUGUCAACUAUGACACGCAAAACGCGUGCUCCGUUGAAUGGAAUUUAUCUUG [U55A C76G C93U C103G G143A A150U] is lower in “polymerase ribozyme fitness (log ratio)” value: 1.02 for the first, no more than -4.2 for the second.

Going from GGAUCUUCUCGAUCUAACAAAAAAGACAAAUCUGCCACAAAGCUUGGGAGCAUCUUCGGAUGCAGAGGCGGCAACCUUCGGUGGCGCGAUAGCGCCAACGUUCUCAACUAUGACACGCAAAACGCGUGCUCCGUUGAAUGGAGUUUAUCAUG [A47G G74A] to GGAUCUUCUCGAUCUAACAAAAAAGACAAAUCUGCCACAAAGCUCGAGAUCAUCUUGGGAUGCAGAGGCGGCAGCCUUCGGUGGCGGGAUAGCGCCAACGUUCUCAACUAUGACACGCAAAACGCGUGCUCCGUUGCAUGGAGUUUAUAAUG [U45C G50U C57G C87G A137C C149A], the “polymerase ribozyme fitness (log ratio)” value falls from -3.67 to no more than -4.2.

For GGAUCUUCUCGAUCUAACAAAAAAGACAAAUCUGCCACAAAGCUUAAGAGCAUCUUCGGAUGCAGAGGCGGCAGCCUUCGGUGGCGCGAUAACGCCAACGUUCUCAACUAUGACACGCAAAACGCGUGCUCCGUUGAAUGGAGUUUAUCAUG [G46A G92A], the “polymerase ribozyme fitness (log ratio)” value was -2.92.
